In patent US20210363269A1 (ALX ONCOLOGY, published 2021) one finds binding result, koff and Kd data, which are given here for five molecules.

Assay [1] has as its target T1, cynomolgus SIRP-α D1 domain (cyno1) (cynomolgus monkey, UniProt Q5TFQ8 30-148 (human entry), limits assumed).
T1 chain: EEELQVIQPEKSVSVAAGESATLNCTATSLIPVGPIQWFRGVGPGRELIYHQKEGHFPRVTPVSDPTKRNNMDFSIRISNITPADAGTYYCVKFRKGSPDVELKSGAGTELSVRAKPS
The assay can be described thus: SPR. In short, it runs like this:
(§1)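 Pre-filtered culture media supplied the scFv-Fc antibody clones, which were captured by anti-human IgG Fc amine-coupled (about 4000 RU) to a GLC chip on a ProteOn XPR36. SIRP analytes were flowed in PBS pH 7.4 with 0.01% Tween-20 at 25° C. Interspot and buffer-blank responses were subtracted from the data, which were then fitted to a 1:1 Langmuir model. Dissociation rate constants (koff) were derived from this fitting.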

Assay [2] has as its target T2, cynomolgus SIRP-α D1 domain (cyno2) (cynomolgus monkey, UniProt Q5TFQ8 30-148 (human entry), limits assumed).
T2 chain: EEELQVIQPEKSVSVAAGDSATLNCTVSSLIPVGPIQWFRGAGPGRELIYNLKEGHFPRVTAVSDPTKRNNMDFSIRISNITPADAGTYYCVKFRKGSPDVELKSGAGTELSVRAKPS
The assay can be described thus: SPR. In short, it runs like this: as §1
Background: SPR reads the build-up and loss of mass on a sensor chip optically.

In assay [3] the target is T3, mouse 129 SIRP-α D1 domain (mouse (129 strain), UniProt P97797 32-150).
T3 construct: also called m129
T3 chain: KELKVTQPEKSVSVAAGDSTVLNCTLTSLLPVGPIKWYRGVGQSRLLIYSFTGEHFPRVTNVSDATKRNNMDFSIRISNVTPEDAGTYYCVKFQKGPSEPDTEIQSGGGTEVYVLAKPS
The assay can be described thus: SPR. Put shortly: as §1

For assay [4], the target named is T4, NOD mouse SIRP-α D1 domain (mouse (NOD strain)).
T4 chain: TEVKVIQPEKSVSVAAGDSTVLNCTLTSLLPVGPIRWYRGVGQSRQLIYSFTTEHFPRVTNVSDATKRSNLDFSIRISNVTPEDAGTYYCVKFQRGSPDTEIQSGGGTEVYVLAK
In words: SPR. Put shortly:
as §1

Assay [5] concerns the target T5, C57BL/6 mouse SIRP-α D1 domain (mouse (C57BL/6 strain), UniProt P97797 32-148).
T5 sequence: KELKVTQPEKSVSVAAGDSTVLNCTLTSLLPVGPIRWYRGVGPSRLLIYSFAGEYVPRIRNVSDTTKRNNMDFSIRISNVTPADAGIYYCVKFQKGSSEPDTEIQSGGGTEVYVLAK
The assay can be described thus: SPR. In short, it runs like this: as §1

In assay [6] the target is T6, high affinity SIRP-α D1 variant CV1-3.
T6 chain: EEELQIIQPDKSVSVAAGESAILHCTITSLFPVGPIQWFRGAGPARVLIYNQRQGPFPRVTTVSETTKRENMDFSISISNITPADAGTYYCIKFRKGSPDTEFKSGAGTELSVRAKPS
In words: SPR, Langmuir fit. Put shortly:
as §1

In assay [7] the target is T7, human SIRP-α v2 (human).
T7 construct: also called Human v2; Human V2
T7 sequence (chain, as listed by the source limits assumed): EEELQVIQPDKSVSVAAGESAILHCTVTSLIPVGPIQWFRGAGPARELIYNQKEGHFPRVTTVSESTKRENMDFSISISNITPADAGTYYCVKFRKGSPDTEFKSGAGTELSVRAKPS
The assay can be described thus: SPR. In short, it runs like this:
(§2)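 Antibodies were amine-coupled (GLC chip) or captured via biotinylated Protein A (NLC chip) on a ProteOn XPR36, and SIRP analytes were injected in one-shot kinetic mode at 25° C in PBS pH 7.4 with 0.01% Tween-20. KD is kd/ka from apparent rate constants given by a global simple Langmuir fit of double-referenced data, with analyte concentrations nominal.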

Assay [8] has as its target T8, human SIRPβ isoform 1 (human, UniProt O00241 30-148).
T8 construct: also called Beta; Human SIRPb
The assay can be described thus: SPR Koff +/-. In short, it runs like this: as §2
T8 sequence (O00241 30-148 limits assumed): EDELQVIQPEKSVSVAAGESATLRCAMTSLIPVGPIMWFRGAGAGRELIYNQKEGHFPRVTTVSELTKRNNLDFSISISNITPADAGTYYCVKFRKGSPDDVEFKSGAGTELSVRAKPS

The target in assay [9] is T9, human SIRP-α v1 (human, UniProt P78324 31-149).
T9 construct: also called Human v1; Human V1
T9 sequence (P78324 31-149 limits assumed): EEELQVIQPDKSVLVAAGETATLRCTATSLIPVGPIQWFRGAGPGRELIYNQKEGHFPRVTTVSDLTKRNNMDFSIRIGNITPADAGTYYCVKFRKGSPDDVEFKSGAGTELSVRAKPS
In words: SPR; fitted KD column of Table P. In short, it runs like this:
as §2

Assay [10] deals with T9, human SIRP-α v1. The assay can be described thus: SPR Koff +/-. Put shortly:
as §2

Assay [11] concerns the target T10, human SIRP-α v2 D1 domain (human).
T10 construct: also called human v2
In words: SPR. In short, it runs like this:
as §1

Assay [12] has as its target T11, human SIRPβ isoform 1 (human, UniProt O00241 30-148).
T11 construct: also called SIRPb; sirpb1
In words: SPR. In short, it runs like this: as §1
T11 sequence (O00241 30-148 limits assumed): as the sequence (O00241 30-148 limits assumed) above

Assay [13] concerns the target T12, human SIRP-α v1 D1 domain (human, UniProt P78324 31-149).
T12 construct: also called human v1
In words: SPR, Langmuir fit. Put shortly: as §1

In assay [14] the target is T1, cynomolgus SIRP-α D1 domain (cyno1). The assay can be described thus: SPR, Langmuir fit. In short, it runs like this: as §1
In assay [15] the target is T2, cynomolgus SIRP-α D1 domain (cyno2). In words: SPR, Langmuir fit. In short, it runs like this:
as §1

Assay [16] concerns the target T9, human SIRP-α v1. In words: SPR. In short, it runs like this: as §2
In assay [17] the target is T9, human SIRP-α v1. The assay can be described thus: SPR, antibody on GLC chip. Put shortly:
(§3)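 Protein A-purified antibodies were diluted to 80 nM in 10 mM sodium acetate pH 4.5 and amine-coupled (~1000 RU) to a GLC chip of a ProteOn XPR36 biosensor. SIRP analytes were injected one-shot at 100, 33, 11, 3.7, 1.2 and 0 nM in PBS pH 7.4 with 0.01% Tween-20 at 25° C. Association ran 90 s at 100 μL/min and dissociation 1200 s. KD came from double-referenced data fitted globally to a Langmuir model, as kd/ka.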

Assay [18] addresses T7, human SIRP-α v2. In words: SPR, antibody on GLC chip. Put shortly: as §3
The target in another assay is T13, NOD mouse SIRP-α (mouse (NOD strain)).
T13 chain: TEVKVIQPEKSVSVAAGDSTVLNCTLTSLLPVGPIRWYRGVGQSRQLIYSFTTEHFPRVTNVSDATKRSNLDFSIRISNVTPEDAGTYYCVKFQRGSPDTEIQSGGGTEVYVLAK
The assay can be described thus: SPR, antibody on GLC chip. Put shortly:
as §3

Another assay deals with T14, BL6 mouse SIRP-α (mouse (C57BL/6 strain), UniProt P97797 32-148).
T14 construct: also called C57BL/6
T14 sequence: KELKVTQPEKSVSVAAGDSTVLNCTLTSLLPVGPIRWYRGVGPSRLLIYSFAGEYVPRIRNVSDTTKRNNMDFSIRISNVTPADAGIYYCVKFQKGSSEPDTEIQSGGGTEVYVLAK
In words: SPR, antibody on GLC chip. In short, it runs like this: as §3

The target of another assay is T15, BALBc mouse SIRP-α (mouse (BALB/c strain)).
T15 chain: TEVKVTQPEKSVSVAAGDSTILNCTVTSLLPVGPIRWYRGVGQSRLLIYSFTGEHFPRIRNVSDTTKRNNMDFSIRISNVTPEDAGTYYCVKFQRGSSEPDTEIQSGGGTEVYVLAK
In words: SPR, antibody on GLC chip. In short, it runs like this:
as §3

Assay [19] has as its target T8, human SIRPβ isoform 1. In words: SPR, antibody on GLC chip. Put shortly: as §3
The target of another assay is T16, human SIRPγ isoform 1 (human, UniProt Q9P1W8 29-147).
T16 construct: also called Gamma; Human SIRPg
T16 sequence (Q9P1W8 29-147 limits assumed): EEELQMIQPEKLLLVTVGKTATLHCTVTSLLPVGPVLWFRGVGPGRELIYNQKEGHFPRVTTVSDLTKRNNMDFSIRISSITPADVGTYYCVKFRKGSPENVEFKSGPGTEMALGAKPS
The assay can be described thus: SPR, antibody on GLC chip; fitted KD (M) in Table Q; weak binding, 23.9 nM. The protocol:
All experiments were performed at 25° C. using a SPR-based ProteOn XPR36 biosensor (BioRad, Inc, Hercules, Calif.) equipped with GLC or NLC sensor chips. […] Purification was carried out by standard Protein A affinity column chromatography and eluted antibodies were stored in PBS buffer.
For the method using GLC chip, the analytes were injected and flowed over anti-SIRPα antibodies immobilized (˜1000 RUs) on GLC chips using Proteon™ Amine Coupling Kit. For the immobilization step, GLC chip was activated with EDAC/Sulpho-NHS 1:1 (Biorad) diluted 1/100 for 300 s at 25 μL/min. Anti-SIRPα antibodies were diluted to 80 nM concentration in 10 mM sodium acetate buffer pH 4.5 and immobilized to the chip at 30 μL/min for 50 s. Chip was inactivated with ethanolamine for 300 s at 25 μL/min. The analytes (e.g., SIRP-α from different species, SIRP-β, SIRP-γ) were injected in a “one-shot” kinetic mode at nominal concentrations of 100, 33, 11, 3.7, 1.2 and 0 nM. Association times were monitored for 90 s at 100 μL/min, and dissociation times were monitored for 1200 s. The surfaces were regenerated with a 2:1 v/v blend of Pierce IgG elution buffer/4M NaCl.

T12 sequence (P78324 31-149 limits assumed): as the sequence (P78324 31-149 limits assumed) above

B1: S45 (scFv, V domains shown)
VH: AVTLDESGGGLQTPGGALSLVCKASGFTFSSYAMGWVRQAPGKGLEWVAGIDDDGSTANYGPAVKGRATISRDNGQSTVRLQLNNPRAEDSGTYFCAKASVTGWSAHISGRLDTWGHGTEVIVSS
VL: ALTQPASVSANPGETVKITCSGGGIYYYGWYQQKSPGSAPVTLIYENDKRPSDIPSRFSGSTSGSTNTFTITGVQAEDEAVYYCGGYDSNTTSGIFGAGTTLTVL
notes: also called clone 45; scFv-Fc form of AB45
A word on the koff: it is a measure of how fast the partners let go of each other. Lower therefore signals a long-lived complex. As to B1, the binding result in assay [1], in assay [2], in assay [3], in assay [4] and in assay [5] was “no binding (tested: Koff > 5 × 10^3 (legend))” in each case. In assay [6], this molecule showed a koff of 4.76e-05 s⁻¹.

B2: antibody 213 (antibody, V domains shown)
VH: DVQLVESGGGVVRPGESLRLSCEASGFTFRNYYMTWVRQAPGEGLEWVSTISDTGDTAYYADSVKGRFTISRDNSKNSLYLQMNSLRADDTAIYYCAKSWIWWTFFDYWGLGTLVTVSS
VL: ALTQPASVSANLGGTVEITCSGGNSNHYGWYQQKSPGSAPVTLIYADTNRPSNIPSRFSGSTSGSTTTLTITGVQAEDEAVYYCGGSSTGDGIFGAGTTLTVL
notes: also called S213
By Kd is commonly meant the concentration at which binding is half-saturated. Lower therefore signals higher affinity. As for B2, the Kd with human SIRP-α v2 [7] is 1.69 nM; with human SIRP-α v1 [9], 6.05 nM. Moreover, the binding result in the assay with human SIRPβ isoform 1 [8] is “no binding”.

B3: antibody 214 (antibody, V domains shown)
VH: DVQLVESEGGVVRPGESLRLSCEASGFTFRNSYMTWVRQAPGEGLEWVSTISDTGDTAYYADSVKGRFTISRDNSKNSLYLQMNSLRAEDTAIYYCAKSWIWWTFFDYWGLGTLVTVSS
VL: ALTQPASVSANLGGTVEITCSGGNSNHYGWYQQKSPGSAPVTLIYADTNRPSNIPSRFSGSTSGSTSTLTITGVQAEDEAVYYCGGSSTGDGIFGAGTTLTVL
notes: also called S214
B3: the binding result with human SIRP-α v1 [10] and in the assay with human SIRPβ isoform 1 [8] was “no binding” in each case.

B4: S194 (scFv, V domains shown)
VH: DVQLVESGGGVVRPGESLRLSCAASGFTFRNYGMSWVRQAPGEGLEWVSASSGSGSTYYADSVKGRFTISRDNSKNTLYLQMNSLRAEDTAIYYCAKVTWNNFFDYWGLGTLVTVSS
VL: EIVLAQSPDTLSVSPGERATLTCRASQDVAGKLAWYQQKPGQAPRLLIHATSSRADGIPARFSGSGSGTEFTLTITGLQSEDFAVYYCQQHYDWSPLTFGGGTKVEIK
Consider B4, for which the binding result (in assay [11]; in assay [5]; with human SIRPβ isoform 1 [12]) was “no binding (tested: Koff > 5 × 10^3 (legend))” in each case. The koff in assay [6] was 0.00111 s⁻¹; in assay [13] it was 0.00117 s⁻¹; in assay [14], 0.00131 s⁻¹; in assay [15], 0.00111 s⁻¹.

B5: antibody 136 (antibody, V domains shown)
VH: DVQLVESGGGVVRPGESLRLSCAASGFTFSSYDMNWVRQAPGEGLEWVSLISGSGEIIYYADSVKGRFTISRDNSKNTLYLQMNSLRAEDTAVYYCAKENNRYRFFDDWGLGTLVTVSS
VL: ETVLTQSPGTLTLSPGERATLTCRASQSVYTYLAWYQEKPGQAPRLLIYGASSRATGIPDRFSGSGSGTEFTLTISSLQSEDFAVYYCQQYYDRPPLTFGGGTKVEIK
notes: also called AB136; S136
For the molecule B5, the Kd was determined as 0.458 nM in the assay with human SIRP-α v1 [16]; 3.22 nM with human SIRP-α v2 [7]; 0.458 nM with human SIRP-α v1 [17]; 1.63 nM in the assay with human SIRP-α v2 [18]; 0.554 nM with NOD mouse SIRP-α; 12.7 nM with BL6 mouse SIRP-α. Further, the Kd came to 0.35 nM with BALBc mouse SIRP-α, 4.35 nM with human SIRPβ isoform 1 [19] and 23.9 nM with human SIRPγ isoform 1.
